Results reported in patent publication US20120058906A1.

Legend:
[1] = molecular target: rHuman CD44/Fc Chimera, CF (R&D Systems Cat#3660-CD) (human) (UniProt P16070); experiment: ECL (MSD multi-spot) titration, Fab at 0.25 uM; blank spot 6344
[2] = molecular target: rHuman CD44/Fc Chimera, CF (R&D Systems Cat#3660-CD) (human) (UniProt P16070); experiment: MSD ECL multi-spot assay, antigen spotted on plate, Fab 0.25 uM; blank spot 3693
[3] = molecular target: rHuman HGF R/c-MET/Fc Chimera, CF (R&D Systems Cat#358-MT/CF) (human) (UniProt P08581); experiment: as above
[4] = molecular target: rHuman CD44/Fc Chimera, CF (R&D Systems Cat#3660-CD) (human) (UniProt P16070); experiment: ECL (MSD multi-spot) titration, Fab at 0.01563 uM; blank spot 906
[5] = molecular target: rHuman CD44/Fc Chimera, CF (R&D Systems Cat#3660-CD) (human) (UniProt P16070); experiment: ECL (MSD multi-spot) titration, Fab at 0.0625 uM; blank spot 1738
[6] = molecular target: rHuman CD44/Fc Chimera, CF (R&D Systems Cat#3660-CD) (human) (UniProt P16070); experiment: ECL (MSD multi-spot) titration, Fab at 0.00391 uM; blank spot 576

Substance: Fab VH1-46_IGHD2-15*01_IGHJ2*01 & L2_IGKJ1*01
- ECL signal [1]: 23000
- ECL signal [2]: 10400
- ECL signal [3]: 5910
- ECL signal [4]: 3180
- ECL signal [5]: 6750
- ECL signal [6]: 1300
